According to PMC6208366 (2018):
Read-outs that look alike come from different tables or passages of the source.

Key:
[1] = target: T1, full-length human Tau (htau40, 441 residues, 2N4R) (human, UniProt P10636-8 1-441)
[2] = target: T1, full-length human Tau (htau40, 441 …); remark: listed apart in the source
[3] = target: human full-length Hsp90β (human, UniProt P08238 1-724); assay: ITC
[4] = target: T1, full-length human Tau (htau40, 441 …); assay: Hsp90 in presence of FKBP51 (1:1)

human full-length Hsp90β, sequence (P08238 whole entry): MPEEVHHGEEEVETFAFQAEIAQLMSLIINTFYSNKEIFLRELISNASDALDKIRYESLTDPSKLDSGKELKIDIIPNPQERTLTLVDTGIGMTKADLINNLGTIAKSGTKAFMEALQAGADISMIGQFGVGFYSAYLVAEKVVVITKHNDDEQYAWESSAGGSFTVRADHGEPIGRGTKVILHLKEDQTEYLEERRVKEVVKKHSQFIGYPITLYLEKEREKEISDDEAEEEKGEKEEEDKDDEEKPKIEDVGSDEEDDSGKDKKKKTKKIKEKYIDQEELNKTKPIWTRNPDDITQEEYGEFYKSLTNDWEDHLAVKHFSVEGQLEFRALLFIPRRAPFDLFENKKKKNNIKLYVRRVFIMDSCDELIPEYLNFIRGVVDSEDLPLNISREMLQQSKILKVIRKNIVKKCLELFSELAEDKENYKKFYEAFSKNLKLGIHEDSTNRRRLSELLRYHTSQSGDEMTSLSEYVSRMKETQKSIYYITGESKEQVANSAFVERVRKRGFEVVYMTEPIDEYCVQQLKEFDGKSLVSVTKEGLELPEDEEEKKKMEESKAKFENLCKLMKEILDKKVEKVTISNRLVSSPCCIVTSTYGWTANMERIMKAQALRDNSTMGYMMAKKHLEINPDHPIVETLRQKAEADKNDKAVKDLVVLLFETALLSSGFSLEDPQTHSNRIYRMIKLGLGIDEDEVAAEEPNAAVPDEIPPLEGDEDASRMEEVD

B1: IANBD-labeled Hsp90 M362C (natural protein)
chain: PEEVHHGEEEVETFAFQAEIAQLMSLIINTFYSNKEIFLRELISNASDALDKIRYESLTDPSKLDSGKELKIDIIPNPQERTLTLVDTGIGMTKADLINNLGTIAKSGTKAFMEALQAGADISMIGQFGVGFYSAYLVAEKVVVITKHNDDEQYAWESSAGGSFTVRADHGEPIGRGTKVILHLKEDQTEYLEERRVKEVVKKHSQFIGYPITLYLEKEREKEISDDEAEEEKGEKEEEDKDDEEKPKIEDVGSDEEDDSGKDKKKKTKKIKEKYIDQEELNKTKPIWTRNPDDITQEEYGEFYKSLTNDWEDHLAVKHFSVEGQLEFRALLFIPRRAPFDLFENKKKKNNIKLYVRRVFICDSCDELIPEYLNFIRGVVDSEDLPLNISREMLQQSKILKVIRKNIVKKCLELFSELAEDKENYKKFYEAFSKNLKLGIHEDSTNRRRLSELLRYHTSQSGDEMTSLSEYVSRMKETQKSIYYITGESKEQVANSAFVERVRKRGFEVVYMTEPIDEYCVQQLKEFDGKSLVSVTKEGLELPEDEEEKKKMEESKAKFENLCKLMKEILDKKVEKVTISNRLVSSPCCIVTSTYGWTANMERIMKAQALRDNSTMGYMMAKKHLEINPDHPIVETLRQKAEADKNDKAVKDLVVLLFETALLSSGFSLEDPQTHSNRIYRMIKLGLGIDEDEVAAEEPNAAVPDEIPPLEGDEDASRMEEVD
modifications: IANBD amide fluorescent dye on Cys362 (M362C)
Kd [1]: 4.2 µM

B2: full-length human FKBP51 (natural protein)
chain: MTTDEGAKNNEESPTATVAEQGEDITSKKDRGVLKIVKRVGNGEETPMIGDKVYVHYKGKLSNGKKFDSSHDRNEPFVFSLGKGQVIKAWDIGVATMKKGEICHLLCKPEYAYGSAGSLPKIPSNATLFFEIELLDFKGEDLFEDGGIIRRTKRKGEGYSNPNEGATVEIHLEGRCGGRMFDCRDVAFTVGEGEDHDIPIGIDKALEKMQREEQCILYLGPRYGFGEAGKPKFGIEPNAELIYEVTLKSFEKAKESWEMDTKEKLEQAAIVKEKGTVYFKGGKYMQAVIQYGKIVSWLEMEYGLSEKESKASESFLLAAFLNLAMCYLKLREYTKAVECCDKALGLDSANEKGLYRRGEAQLLMNEFESAKGDFEKVLEVNPQNKAARLQISMCQKKAKEHNERDRRIYANMFKKFAEQDAKEEANKAMGKKTSEGVTNEKGTDSQAMEEEKPEGHV
Kd [2]: 45.1 µM | Kd [3]: 0.249 µM

B3: IANBD-labeled Hsp90 M362C/FKBP51 (1:1) complex (complex)
chain 1: not shown
chain 2: B2 chain
modifications: IANBD amide fluorescent dye on Cys362 (M362C)
Kd [4]: 8.2 µM
